Measured values from patent publication US8183228B2, “Anticoagulant antithrombotic dual inhibitors comprising a biotin label” (MSD OSS B.V. Netherlands, priority 2005, dated 2012).
Structures can show the parent of a compound that is named as a salt. Where two headings read alike, the source gives them in different places.

Legend:
[1] = Pharmacokinetics after s.c. administration in rat (plasma anti-Xa activity); type: in vivo; conditions: for Tmax / AUC(0-inf) / Cmax / half-life: male, Wistar, plasma, sc; for half-life: read-out: T½ eli (converted); for pharmacokinetic behavior in rats (comparison): within the variability of the experiment
Experimental: The pharmacokinetic properties of compounds 10, 12, 17 and 27 were studied in male Wistar rats of 300-400 gr. The rats were anaesthetized by inhalation of a mixture of O2N2O/isoflurane, after which the right jugular vein was cannulated. The next day rats were treated s.c. with doses of 100 or 500 nmol/kg. After s.c. administration, blood was sampled at several time intervals. Then the blood was centrifuged after which the plasma was siphoned off and stored at −20° C. until use. The concentration of the tested compound was measured amidolytically with S2222 (Chromogenix, Chromogenics Ltd, Molndal, Sweden) by determination of the anti-Xa activity based on the method of Teien and Lie in the obtained plasma samples against a calibration curve which was made of the stock solution of the tested compound itself. (Teien A N, Lie M. Evaluation of an amidolytic heparin assay method increased sensitivity by adding purified antithrombin III. Thromb. Res. 1977, 10: 399-410). The concentration in the samples was expressed in nmol/mL and the kinetic parameters were calculated with the noncompartment model of WinNonlin. (FIGS. 6 and 7)

washed human platelets = assay: Inhibition of human platelet aggregation induced by TRAP (washed platelets); type: cell-based
Experimental: This aggregation can be determined by measuring the optical density of the WPL. The in vitro test described here is used to analyze the activity of a test compound to inhibit TRAP-induced aggregation of human platelets.
Between two measurements, the plate is shaking for 40 seconds at 1,000 rpm.

[2] = system: human platelet rich plasma; assay: Inhibition of human platelet aggregation induced by ADP (PRP); type: cell-based
Experimental: The final concentration is 0.38% sodium citrate.
The optical density (OD620) is then measured at 620 nm. […] This is to verify the stability of the platelets (absence of spontaneous platelet aggregation). […] Between two measurements, the plate is shaking for 40 seconds at 1,000 rpm. Each test compound is investigated in at least 2 experiments using PRP from different volunteers.
(§1) The mean OD at each compound concentration (including vehicle) is calculated at t=0 min and t=10 min. The percentage inhibition at each concentration is calculated using the formula: […]

factor Xa = assay: Anti-factor Xa activity in human plasma (amidolytic, S2222); type: biochemical; conditions: against calibration curve of standard heparin
Experimental: 1.3 In Vitro Test for Determination of the Anti-Factor Xa Activity in Human Plasma
The anti-factor Xa activity of the tested compounds in human plasma were measured amidolytically with S2222 (Chromogenix, Chromogenics Ltd, Molndal, Sweden) using the method described by Teien and Lie. (Teien A N, Lie M. Evaluation of an amidolytic heparin assay method increased sensitivity by adding purified antithrombin III. Thromb. Res. 1977, 10: 399-410). The anti-Xa activity is expressed in U/μmol after comparison of the amidolytic activity with a calibration curve of standard heparin.

[3] = system: guinea pig platelet rich plasma; assay: Inhibition of guinea pig platelet aggregation induced by ADP (PRP); type: cell-based; conditions: for IC50: guinea pig PRP
Description: 1.1 In Vitro Test for Inhibition of Guinea Pig Platelet Aggregation Induced by ADP
Addition of adenosine diphosphate (ADP) to human or guinea pig platelet rich plasma (PRP) in vitro induces platelet aggregation. This aggregation can be assessed by measuring the change in optical density (OD) of the PRP. The following in vitro test was used to evaluate the test compound for interference with the ADP-induced aggregation of guinea pigs.
Platelet rich plasma (PRP): Free-flowing blood is taken from a healthy volunteer or a guinea pig and collected in 0.1 volume sodium citrate.2H2O, 3.8% in distilled H2O (w/v). The final concentration is 0.38% sodium citrate. The citrated blood is centrifuged at 1,600 N/kg (160 g, i.e., 900 rpm in a Hettich Rotanta/AP at room temperature. After 15 minutes centrifugation is discontinued with brake turned off, and the supernatant (=PRP) is collected. A fresh solution of ADP (analytical grade), 50 μM in 0.9% NaCl in MQ water, is used immediately.
The platelets in the supernatant (PRP) are counted using a Sysmex blood cell counter and the supernatant is diluted with PPP (platelet poor plasma) to obtain a PRP containing approximately 400,000±50,000 plt/mL. PRP should stabilize at room temperature for at least 20 min but not longer than 3 h.
150 μL PRP is pipetted into a well of the microplate. 30 μL test compound in a range of concentrations (7 concentrations per compound) or vehicle is added and the microplate is placed in the Labsystems iEMS reader MF at 37° C. The optical density (OD620) is then measured at 620 nm. After shaking for 2 minutes in the reader (1,000 rpm), the OD is measured for the second time. This is to verify the stability of the platelets (absence of spontaneous platelet aggregation). Then, 20 μL of 50 μM ADP solution is added and the OD is kinetically measured every minute for 14 minutes at 620. Between two measurements, the plate is shaking for 40 seconds at 1,000 rpm. Each test compound is investigated in at least 2 experiments using PRP from different volunteers.
as §1
The IC50 of the test compound is the concentration at which the ADP-induced platelet aggregation is reduced by 50%. For this, the percentage inhibition values are plotted against compound concentration and the IC50 is calculated using Graphpad Prism 3.0 (with variable slope).
As performed in above described protocol for ADP-induced platelet aggregation. […] Before inducing the guinea pig platelet aggregation by adding ADP, compound and avidin (from egg white, Sigma) in different concentrations were pre-incubated for 2 minutes at room temperature (FIGS. 1 and 2).

CO[C@H]1O[C@H](COS(=O)(=O)O)[C@@H](O[C@@H]2O[C@@H](C(=O)O)[C@@H](O[C@H]3O[C@H](COS(=O)(=O)O)[C@@H](O[C@@H]4O[C@H](C(=O)O)[C@@H](O[C@H]5O[C@H](COS(=O)(=O)O)[C@@H](OCCOCCOCCOCCNC(=O)[C@H](CCCCNC(=O)CCCC[C@@H]6SC[C@@H]7NC(=O)N[C@@H]76)NC(=O)COCCOCCOCCOCCNC(=O)c6cccc(S(=O)(=O)N[C@@H](Cc7ccc(OCCCCC8CCNCC8)cc7)C(=O)O)c6)[C@H](OC)[C@H]5OC)[C@H](OC)[C@H]4OC)[C@H](OS(=O)(=O)O)[C@H]3OS(=O)(=O)O)[C@H](OC)[C@H]2OC)[C@H](OS(=O)(=O)O)[C@H]1OS(=O)(=O)O [Compound 10, sodium salt]
Cl ([1]; 500 nmol/kg, mean ± s.e.m.): 0.11 ± 0.005 mL/min/kg | Vz ([1]; 500 nmol/kg, mean ± s.e.m.): 0.103 ± 0.009 L/kg | Tmax ([1]; 500 nmol/kg): 1.3 h | AUC(0-inf) ([1]; 500 nmol/kg, mean ± s.e.m.): 76.2 ± 2.8 µM·h | Cmax ([1]; 500 nmol/kg, mean ± s.e.m.): 4500 ± 400 nM | half-life ([1]; 500 nmol/kg, mean ± s.e.m.): 10.7 ± 1.5 h | pharmacokinetic behavior in rats (comparison) [1]: same pharmacokinetic behavior | IC50 (washed human platelets): 72 nM | IC50 [2]: 74 nM | Anti-Xa U/μmol Human plasma pH 7.4 (factor Xa): 927 U/μmol | concentration at which maximal inhibition of the guinea pig platelet aggregation is achieved [3]: 450 nM | IC50 [3]: 225 nM

CO[C@H]1O[C@H](COS(=O)(=O)O)[C@@H](O[C@@H]2O[C@@H](C(=O)O)[C@@H](O[C@H]3O[C@H](COS(=O)(=O)O)[C@@H](O[C@@H]4O[C@H](C(=O)O)[C@@H](O[C@H]5O[C@H](COS(=O)(=O)O)[C@@H](OCCOCCOCCOCCNC(=O)COCCOCCOCCOCCNC(=O)c6cccc(S(=O)(=O)N[C@@H](Cc7ccc(OCCCCC8CCNCC8)cc7)C(=O)O)c6)[C@H](OC)[C@H]5OC)[C@H](OC)[C@H]4OC)[C@H](OS(=O)(=O)O)[C@H]3OS(=O)(=O)O)[C@H](OC)[C@H]2OC)[C@H](OS(=O)(=O)O)[C@H]1OS(=O)(=O)O [Compound 12, sodium salt, reference compound]
Tmax ([1]; 100 nmol/kg): 1.3 h | AUC(0-inf) ([1]; 100 nmol/kg, mean ± s.e.m.): 16.8 ± 0.5 µM·h | Cmax ([1]; 100 nmol/kg, mean ± s.e.m.): 1260 ± 20 nM | half-life ([1]; 100 nmol/kg, mean ± s.e.m.): 9.8 ± 0.4 h | pharmacokinetic behavior in rats (comparison) [1]: same pharmacokinetic behavior | IC50 (washed human platelets): 65 nM | IC50 [2]: 92 nM | Anti-Xa U/μmol Human plasma pH 7.4 (factor Xa): 1392 U/μmol | concentration at which maximal inhibition of the guinea pig platelet aggregation is achieved [3]: 225 nM | IC50 [3]: 127 nM

CO[C@H]1O[C@H](COS(=O)(=O)O)[C@@H](O[C@@H]2O[C@@H](C(=O)O)[C@@H](O[C@H]3O[C@H](COS(=O)(=O)O)[C@@H](O[C@@H]4O[C@H](C(=O)O)[C@@H](O[C@H]5O[C@H](COS(=O)(=O)O)[C@@H](OCCOCCOCCOCCNC(=O)[C@H](CCCCNC(=O)C[C@H](NC(=O)CCCC[C@@H]6SC[C@@H]7NC(=O)N[C@@H]76)C(=O)O)NC(=O)COCCOCCOCCOCCNC(=O)c6cccc(S(=O)(=O)N[C@@H](Cc7ccc(OCCCCC8CCNCC8)cc7)C(=O)O)c6)[C@H](OC)[C@H]5OC)[C@H](OC)[C@H]4OC)[C@H](OS(=O)(=O)O)[C@H]3OS(=O)(=O)O)[C@H](OC)[C@H]2OC)[C@H](OS(=O)(=O)O)[C@H]1OS(=O)(=O)O [Compound 17, sodium salt]
Tmax ([1]; 100 nmol/kg): 1.7 h | AUC(0-inf) ([1]; 100 nmol/kg, mean ± s.e.m.): 15.9 ± 0.9 µM·h | Cmax ([1]; 100 nmol/kg, mean ± s.e.m.): 1240 ± 10 nM | half-life ([1]; 100 nmol/kg, mean ± s.e.m.): 10.4 ± 0.5 h | pharmacokinetic behavior in rats (comparison) [1]: same pharmacokinetic behavior | IC50 (washed human platelets): 74 nM | IC50 [2]: 49 nM | Anti-Xa U/μmol Human plasma pH 7.4 (factor Xa): 1411 U/μmol | IC50 [3]: 66 nM
